Residue numbers refer to the chain shown, from its start. In names and notes the source's numbering stands.
Key:
[1] = target: T1, Adenosine A2B receptor (Rattus norvegicus, UniProt P29276); settings: Peakman and Hill 1994, primary rat astrocytes; read-out: K1/2 value indicated in the literature; cited from earlier work
T1 construct: host or cells: primary rat astrocytes
T1 sequence (P29276 1-332): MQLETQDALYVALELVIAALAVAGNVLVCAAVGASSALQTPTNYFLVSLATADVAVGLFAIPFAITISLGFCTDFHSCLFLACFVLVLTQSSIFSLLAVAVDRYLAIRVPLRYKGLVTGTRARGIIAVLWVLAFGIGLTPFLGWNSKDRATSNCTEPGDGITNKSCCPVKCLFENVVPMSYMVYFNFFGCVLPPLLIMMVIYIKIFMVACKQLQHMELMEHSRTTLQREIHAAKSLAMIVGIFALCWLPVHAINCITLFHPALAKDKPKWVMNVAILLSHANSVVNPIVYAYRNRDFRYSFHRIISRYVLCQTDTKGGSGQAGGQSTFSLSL

[2] = target: Drosophila dopamine receptor (Drosophila melanogaster, UniProt P41596); settings: dopamine 25-600 nM, FIG. 5A
Description: On the day after transfection, the cells were seeded into a multiwell plate with 96 wells. The cell density per well was 2×10^4 cells.
The fluorimetric measurements of intracellular Ca^2+ concentrations were carried out in multiwell plates with 96 wells (FIG. 5A-5G). The cells were loaded with the Ca^2+-sensitive fluorescent dye Fluo-4 one hour before the measurement. The loading solution contained 120 mM of NaCl, 3 mM of KCl, 50 mM of glucose, 10 mM of Hepes (pH 7.4), 3 mM of MgCl2 and 4 μm of Fluo4-AM (molecular probes). The measuring solution contained 120 mM of NaCl, 3 mM of KCl, 50 mM of glucose, 10 mM of Hepes (pH 7.4) and 3 mM of CaCl2. The time course of the change in fluorescence intensity after application of agonists, antagonists, enzyme activators or enzyme inhibitors was registered using a fluorescence reader (FLUOstar, BMG-Labtechnologies). The excitation wavelength was 485 nm. The emission wavelength was 520 nm.

[3] = target: T2, corticotropin-releasing factor (CRF) receptor (Rattus norvegicus, UniProt P35353); test: Fluorescence-optical Ca2+ measurement: CRF receptor with T537M cAMP sensor; type: cell-based; settings: agonist CRF 100-1,000 pM, FIG. 5B
T2 construct: expressed in transfected cells; host or cells: HEK293 stably co-expressing pcCRFR1 and bovine α3 T537M
T2 sequence (P35353 24-415): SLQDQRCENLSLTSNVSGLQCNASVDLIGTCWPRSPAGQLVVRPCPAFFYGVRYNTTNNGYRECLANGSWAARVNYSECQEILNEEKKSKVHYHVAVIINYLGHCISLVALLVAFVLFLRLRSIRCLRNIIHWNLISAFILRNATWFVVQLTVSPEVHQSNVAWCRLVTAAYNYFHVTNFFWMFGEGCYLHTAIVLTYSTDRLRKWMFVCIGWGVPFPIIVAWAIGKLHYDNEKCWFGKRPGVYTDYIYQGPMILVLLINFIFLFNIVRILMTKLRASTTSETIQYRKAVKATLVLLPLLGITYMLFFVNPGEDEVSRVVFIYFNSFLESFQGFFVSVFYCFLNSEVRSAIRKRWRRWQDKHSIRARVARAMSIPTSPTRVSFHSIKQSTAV
Description: The CRF receptor was cloned by carrying out a PCR of primary strand cDNA of rat hypophyses, using the primers #843 (5′-[…]-3′) (SEQ ID NO 11) and #842 (5′-[…]-3′) (SEQ ID NO 12). A 100 μl PCR mixture comprised 10 ng of primary strand cDNA, 1×PCR buffer for Taq polymerase incl. 1.5 mM of MgCl2, 200 μm of dNTPs, 1 U of Taq polymerase and in each case 150 ng of the two primers. The PCR conditions were as follows. 2 minutes of denaturation at 94° C., followed by 44 cycles of in each case 45 s at 94° C., 45 s at 56° C., 75 s at 72° C. The 1271 bp fragment was cloned via BamHI and SacI in pBluescript SK^—into (pBCRFR1). […]
FIG. 5B depicts the fluorimetrically measured change in intracellular Ca^2+ concentration in cells which stably express both the corticotropin-releasing factor (CRF) receptor and the T537M mutant of the α3-CNG channel. The time course of fluorescence intensity after stimulation of the cells with the agonist CRF is shown. […]
Cells which stably express the corticotropin-releasing factor (CRF) receptor and the T537M mutants of the α3-CNG channel were treated with the helical antagonist 9-41 (Rivier J., Rivier C., and Vale W. W. (1984) Synthetic competitive antagonists of corticotropin-releasing factor: effect on ACTH secretion in the rat. Science, 224, 889-891), before being stimulated with CRF (1 nM). The time course of fluorescence intensity is shown. […]

[4] = test system: endogenous phosphodiesterase (PDE); test: Fluorescence-optical Ca2+ measurement: phosphodiesterase inhibition with T537M cAMP sensor; type: cell-based, human; settings: IBMX 0-100 μm, then 5 μm forskolin, FIG. 5E
Excerpt: (§1) The excitation wavelength was 485 nm. The emission wavelength was 520 nm.
The effect of a phosphodiesterase (PDE) inhibitor on the forskolin-induced change in intracellular Ca^2+ concentration is shown. Cells which stably express the T537M mutants of the α3-CNG channel were first treated with different concentrations of the PDE inhibitor IBMX and then stimulated with 5 μm forskolin. […] The IBMX concentration was 0 μm (filled circles), 10 μm (open circles), 50 μm (filled triangles) or 100 μm (open triangles).

[5] = test system: homooligomeric bovine α3 CNG channels; test: Patch clamp electrophysiology of inside-out patches: activation of heterologously expressed CNG channels by cAMP and cGMP; type: biochemical; settings: for Hill coefficient n, cAMP / Hill coefficient n, cAMP, averaged / Hill coefficient n, cGMP / Hill coefficient n, cGMP, averaged: +100 mV; for Hill coefficient n, cAMP: fit of FIG. 1B / 3B; for Hill coefficient n, cAMP, averaged / Hill coefficient n, cGMP, averaged: normalized Hill equation; for Hill coefficient n, cAMP, averaged: averaged parameters (FIG. 1C / 3C); for Hill coefficient n, cGMP: fit of FIG. 2B / 4B; for Hill coefficient n, cGMP, averaged: averaged parameters (FIG. 2C / 4C); for relative selectivity: times more selective for cAMP: quotient K1/2 cGMP / K1/2 cAMP; for relative selectivity: times more selective for cGMP: quotient of K1/2 values
Excerpt: For this purpose, the corresponding nucleic acids were cloned into the expression vector pcDNA3.1 (Invitrogen) (see Methods). The expression constructs were then used to transform the cells of the human embryonic kidney cell line 293 (HEK293 cells) and the corresponding proteins were functionally expressed therein either transiently or stably (see Methods). The results of the studies are depicted in FIGS. 1-4. FIGS. 1-4 B depict the dependence of the average current on the cAMP concentration and cGMP concentration, respectively, in each case in the form of a dose-response relationship. The results of these measurements were used to calculate the sensitivity of the CNG channels to cAMP and cGMP. […] EMBO J., 13, 5040-5050. For electrophysiological characterization, the cells were transferred to glass slides which had been coated with poly L-lysine, on the day after transfection. The electrophysiological studies were then carried out on the following day. […] The electrophysiological characterization of the genetically modified CNG channels was carried out using the patch clamp technique under voltage clamping conditions. […] inside-out patches were excised from cells which stably expressed genetically modified or wild-type CNG channels. The bath solution containing different concentrations of cyclic nucleotides was used to flow over the membrane patches. Starting from a holding voltage of 0 mV, sudden voltage changes were applied to different test voltages between -100 mV and +100 mV at the patch with a step width of 20 mV. The currents were registered and analyzed using standard methods.

[6] = test system: α3-CNG channel; test: Fluorescence-optical Ca2+ measurement: cAMP sensor sensitivity of α3-CNG channel variants after adenosine stimulation; type: cell-based
Excerpt: as §1
The extent of the change in intracellular Ca^2+ concentration (fluorescence signal) was plotted as a function of time. […] Cells which stably express the T537S mutant of the α3-CNG channel were also stimulated for comparison.

[7] = maximum stimulation with 25 μm adenosine

Sequence of Drosophila dopamine receptor (P41596 20-511): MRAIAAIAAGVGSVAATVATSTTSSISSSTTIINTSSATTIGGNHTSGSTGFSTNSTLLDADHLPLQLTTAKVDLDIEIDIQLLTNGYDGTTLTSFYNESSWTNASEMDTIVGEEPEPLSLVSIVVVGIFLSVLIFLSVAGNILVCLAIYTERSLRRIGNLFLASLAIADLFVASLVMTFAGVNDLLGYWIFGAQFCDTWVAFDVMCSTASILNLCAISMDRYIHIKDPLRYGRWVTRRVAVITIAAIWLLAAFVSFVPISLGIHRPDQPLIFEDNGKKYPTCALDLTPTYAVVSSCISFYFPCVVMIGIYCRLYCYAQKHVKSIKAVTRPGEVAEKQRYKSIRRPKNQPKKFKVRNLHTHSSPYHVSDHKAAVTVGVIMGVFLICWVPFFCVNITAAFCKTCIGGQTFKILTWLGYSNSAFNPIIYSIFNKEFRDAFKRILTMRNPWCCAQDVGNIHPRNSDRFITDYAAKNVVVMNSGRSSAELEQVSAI

Nc1ncnc2c1ncn2[C@@H]1O[C@H](CO)[C@@H](O)[C@H]1O [adenosine]
EC50 [1]: 5 µM

NCCc1ccc(O)c(O)c1 [dopamine]
speed and extent of the change in Ca2+ concentration [2]: depend on the dopamine concentration

CRF: corticotropin-releasing factor, agonist of the CRF receptor
speed and extent of the change in Ca2+ [3]: depend on the CRF concentration

CC(C)Cn1c(=O)n(C)c(=O)c2[nH]cnc21 [IBMX]
extent of the forskolin-induced change in intracellular Ca2+ concentration [4]: depend on the concentration of the PDE inhibitor

B1: T537M: bovine α3 CNG channel with methionine in place of threonine T537 (SEQ ID NO 4) (protein, UniProt Q03041 1-663, looked up, variant T537M)
Cyclic nucleotide-gated …: MTEKANGVKSSPANNHNHHAPPAIKASGKDDHRASSRPQSAAADDTSSELQQLAEMDAPQQRRGGFRRIARLVGVLREWAYRNFREEEPRPDSFLERFRGPELHTVTTQQGDGKGDKDGEGKGTKKKFELFVLDPAGDWYYRWLFLIALPVLYNWCLLVARACFSDLQKGYYIVWLVLDYVSDVVYIADLFIRLRTGFLEQGLLVKDTKKLRDNYIHTMQFKLDVASIIPTDLIYFAVGIHNPEVRFNRLLHFARMFEFFDRTETRTSYPNIFRISNLILYILIIIHWNACIYYAISKSIGFGVDTWVYPNITDPEYGYLSREYIYCLYWSTLTLTTIGETPPPVKDEEYLFVIFDFLIGVLIFATIVGNVGSMISNMNATRAEFQAKIDAVKHYMQFRKVSKEMEAKVIRWFDYLWTNKKSVDEREVLKNLPAKLRAEIAINVHLSTLKKVRIFQDCEAGLLVELVLKLRPQVFSPGDYICRKGDIGKEMYIIKEGKLAVVADDGVTQYALLSAGSCFGEISILNIKGSKMGNRRMANIRSLGYSDLFCLSKDDLMEAVTEYPDAKRVLEERGREILMKEGLLDENEVAASMEVDVQEKLEQLETNMDTLYTRFARLLAEYTGAQQKLKQRITVLETKMKQNNEDDSLSDGMNSPEPPAEKP
Hill coefficient n, cAMP [5]: 2.4
Hill coefficient n, cAMP, averaged [5]: 2.4
Hill coefficient n, cGMP [5]: 2.0
Hill coefficient n, cGMP, averaged [5]: 1.9
relative selectivity: times more selective for cAMP [5]: about 6 times
times less sensitive to cGMP in comparison with the T537S mutant ([5]; ratio of K1/2 values): 21 times
times less sensitive to cGMP in comparison with the wild type ([5]; ratio of K1/2 values): about 9 times
times more sensitive to cAMP in comparison with the T537S mutant ([5]; ratio of K1/2 values): about 5 times
times more sensitive to cAMP in comparison with the wild type ([5]; ratio of K1/2 values): about 30 times
change in fluorescence signal (intracellular Ca2+) ([6]; stimulation with 3 μm adenosine (about half maximum)): distinct increase in the fluorescence signal

B2: T537S: known bovine α3 CNG channel subunit in which threonine 537 is replaced with serine (protein, UniProt Q03041 1-663, looked up, variant T537S)
Cyclic nucleotide-gated …: B1 Cyclic nucleotide-gated … with M537S
relative selectivity: times more selective for cGMP [5]: about 20 times
change in fluorescence signal (intracellular Ca2+) [6, 7]: only a very low increase in the fluorescence signal

B3: Wild Type: wild-type α3 subunit of the bovine CNG channel (SEQ ID NO 2) (protein)
chain: B1 Cyclic nucleotide-gated … with M537T
modifications: Bovine
Hill coefficient n, cAMP, averaged [5]: 2.0
Hill coefficient n, cGMP, averaged [5]: 2.0
relative selectivity: times more selective for cGMP [5]: about 50 times
change in fluorescence signal (intracellular Ca2+) [6, 7]: no increase in the fluorescence signal

B4: T537V: bovine α3 CNG channel with valine in place of threonine T537 (SEQ ID NO 6) (protein)
chain: B1 Cyclic nucleotide-gated … with M537V
modifications: Bovine
Hill coefficient n, cAMP [5]: 2.2
Hill coefficient n, cAMP, averaged [5]: 1.5
Hill coefficient n, cGMP [5]: 2.2
Hill coefficient n, cGMP, averaged [5]: 2.1
relative selectivity: times more selective for cAMP [5]: about 6 times
times less sensitive to cAMP than the T537S mutant ([5]; ratio of K1/2 values): about 2.5 times
times less sensitive to cGMP in comparison with the T537S mutant ([5]; ratio of K1/2 values): about 350 times
times less sensitive to cGMP in comparison with the wild type ([5]; ratio of K1/2 values): about 150 times
times more sensitive to cAMP in comparison with the wild type ([5]; ratio of K1/2 values): ~3 times

Reference: patent US7951914B2, “Genetically modified cyclic-nucleotide controlled ion channels” (Forschungszentrum Julich GmbH, priority 2001, dated 2011)
